# Assay results as given in US20080124340A1 (published 2008).
# T1: mouse EpoR-Fc protein (muEpoR-Fc) (mouse, UniProt P14753 25-249)
# T1 construct: Biotinylated in the assay; also called biotinylated muEpoR-Fc; not shown: Fc part not described
# T1 sequence (looked up): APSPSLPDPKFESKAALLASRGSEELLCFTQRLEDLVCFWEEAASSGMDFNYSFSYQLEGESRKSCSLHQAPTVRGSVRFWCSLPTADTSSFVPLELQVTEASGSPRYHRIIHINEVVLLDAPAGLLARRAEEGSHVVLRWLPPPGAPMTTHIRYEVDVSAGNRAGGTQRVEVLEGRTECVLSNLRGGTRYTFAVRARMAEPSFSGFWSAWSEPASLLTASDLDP
# Target: T1, mouse EpoR-Fc protein (muEpoR-Fc)
# Assay: ELISA: antibody coated at 1 µg/ml, biotinylated muEpoR-Fc at 5 µg/ml, streptavidin-HRP, ABTS
row,binding result,Binder
1,binds,"clone 30 IgG2 protein (antibody, V domains shown, Human IgG2; also called IgG2 30) VH: QVQLQESGPGLVKPSQTLSLTCAISGDSVSSNSAAWNWIRQSPSRGLEWLGRTYYRSKWYNDYAVSVKSRMTIKADTSKNQFSLQLNSVTPEDTAVYYCARDEGPLDYWGQGTLVTVSA VL: QAVLTQPSSVSGAPGQRVTISCTGSSSNLGTGYDVHWYQQLPGTAPKLLIYGNSNRPSGVPDRFSGSKSDTSGLLAITGLQAEDEATYYCQSYDFSLSAMVFGGGTKVTVL"
2,binds,"clone 2 IgG2 protein (antibody, V domains shown, Human IgG2 (vector pVE414NhuIgG2); light chain constant type matches the variable light chain isotype; also called IgG2 2; IgG22) VH: EVQLVQSGGGLVQPGGSLRLSCAASGFTFSSYWMSWVRQAPGKGLEWVANIKPDGSEKYYVDSVKGRFTISRDNAKNSVYLQMNSLRAEDTAVYYCARVSRGGSYSDWGQGTLVTVSS VL: QSVLTQPPSASGSPGQSVTISCTGTSSDVGGYNYVSWYQQHPGKAPKLMIYEVSKRPSGVPDRFSGSKSGNTASLTVSGLQPEDEADYYCSSYAGRNWVFGGGTQLTVL"
3,binds,"clone 7 IgG2 protein (antibody, V domains shown, Human IgG2; also called IgG2 7) VH: EVQLVQSGGGLVQPGGSLRLSCAASGFTFSSYWMSWVRQAPGKGLEWVANIKPDGSEKYYVDSVKGRFTISRDNAKNSVYLQMNSLRAEDTAVYYCARVSRGGSYSDWGKGTLVTVSS VL: QSALTQPASVSGSPGQSIIISCTGTRSDIGGYNYVSWYQHHPGRAPKLIIFDVNNRPSGVSHRFSGSKSGNTASLTISGLQAEDEADYYCNSFTDSRTWLFGGGTKLTVL"
4,binds,"clone 5 IgG2 protein (antibody, V domains shown, Human IgG2; also called IgG2 5; IgG25) VH: EVQLVESGGGLVQPGGSLRLSCAASGFTFSSYWMSWVRQAPGKGLEWVANIKPDGSEKYYVDSVKGRFTISRDNAKNSVYLQMNSLRAEDTAVYYCARVSRGGSYSDWGQGTLVTVSS VL: QSALTQPASVSGSPGQSITISCTGTSSDVGGYIYVSWYQQHPGKAPKLMIYDVSRRPSGISDRFSGSKSGNTASLTISGLQAEDEADYYCNSYTTLSTWLFGGGTKVTVL"
5,binds,"clone 10 IgG2 protein (antibody, V domains shown, Human IgG2; also called IgG2 10) VH: not shown VL: QSVLTQPPSVSEAPGQRVTIACSGSSSNIGNNAVSWYQQLPGKAPTLLIYYDNLLPSGVSDRFSGSKSGTSASLAISGLQSEDEADYYCAAWDDSLNDWVFGGGTKVTVL"
